The record followed here is US20240368668A1, “SUBSTRATES AND BIOMARKERS OF ADAMTS7” (The Broad Institute, Inc., priority 2021, published 2024).

Square brackets hold non-standard residues; d marks the D form. Ends that are not written are not given here.

For one experiment, the target named is T1, mouse ADAMTS7 (Mus musculus, UniProt Q68SA9, E373Q).
T1 construct: Full-length mouse Adamts7 1-1857 (Uniprot Q68SA9, WT or E373Q catalytic mutant); expressed in transfected cells; host or cells: Human Coronary Artery Smooth Muscle Cells (HCA-SMC, Lonza), adenovirus 50 MOI
T1 sequence (Q68SA9 221-1657 E373Q): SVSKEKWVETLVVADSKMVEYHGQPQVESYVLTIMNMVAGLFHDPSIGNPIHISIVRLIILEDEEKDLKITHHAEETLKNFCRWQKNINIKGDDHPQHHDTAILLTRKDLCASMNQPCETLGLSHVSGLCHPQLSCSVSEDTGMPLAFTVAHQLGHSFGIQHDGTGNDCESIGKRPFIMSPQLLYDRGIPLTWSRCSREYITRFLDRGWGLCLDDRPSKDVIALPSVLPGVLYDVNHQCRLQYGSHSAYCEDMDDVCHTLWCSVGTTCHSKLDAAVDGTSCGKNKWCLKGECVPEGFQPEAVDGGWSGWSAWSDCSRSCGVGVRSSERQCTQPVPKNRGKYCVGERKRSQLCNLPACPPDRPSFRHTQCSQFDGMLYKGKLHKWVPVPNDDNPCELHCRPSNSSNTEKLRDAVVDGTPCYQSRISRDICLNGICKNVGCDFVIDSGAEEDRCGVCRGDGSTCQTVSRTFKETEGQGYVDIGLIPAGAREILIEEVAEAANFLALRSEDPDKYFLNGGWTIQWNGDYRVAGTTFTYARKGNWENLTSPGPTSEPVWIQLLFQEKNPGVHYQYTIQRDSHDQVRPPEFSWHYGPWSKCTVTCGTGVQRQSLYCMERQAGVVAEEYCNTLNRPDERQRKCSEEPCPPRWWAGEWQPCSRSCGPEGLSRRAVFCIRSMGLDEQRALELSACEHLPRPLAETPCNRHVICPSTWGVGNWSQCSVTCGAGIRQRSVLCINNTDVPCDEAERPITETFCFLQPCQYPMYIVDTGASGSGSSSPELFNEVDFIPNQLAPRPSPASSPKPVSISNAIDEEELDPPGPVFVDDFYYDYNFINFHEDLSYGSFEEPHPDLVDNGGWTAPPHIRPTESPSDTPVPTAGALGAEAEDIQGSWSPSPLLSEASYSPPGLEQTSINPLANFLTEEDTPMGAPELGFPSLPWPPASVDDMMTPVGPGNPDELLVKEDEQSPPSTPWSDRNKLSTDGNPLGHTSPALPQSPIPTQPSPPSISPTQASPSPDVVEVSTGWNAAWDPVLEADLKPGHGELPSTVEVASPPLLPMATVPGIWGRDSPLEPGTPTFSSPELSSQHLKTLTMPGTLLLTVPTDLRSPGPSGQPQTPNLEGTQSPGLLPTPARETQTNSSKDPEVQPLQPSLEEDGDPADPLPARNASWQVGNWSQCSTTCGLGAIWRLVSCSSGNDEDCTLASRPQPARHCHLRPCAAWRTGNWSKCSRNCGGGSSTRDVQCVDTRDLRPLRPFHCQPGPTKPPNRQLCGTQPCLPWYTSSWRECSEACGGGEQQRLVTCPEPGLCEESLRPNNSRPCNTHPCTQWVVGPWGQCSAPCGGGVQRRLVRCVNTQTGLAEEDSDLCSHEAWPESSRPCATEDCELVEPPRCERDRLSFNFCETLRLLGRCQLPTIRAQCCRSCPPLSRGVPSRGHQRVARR
Description: TMT10 TAILS N-terminomics, SMC2 experiment (process replicates, trypsin/AspN digest). The format is cell-based. The settings on record: SMC2_TAILS HC; log fold change, mEQ over Luc. In outline:
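Full-length mouse ADAMTS7 (WT or E373Q mutant, C-terminal 3xFLAG) or luciferase was transduced via adenovirus, 50 MOI, into HCA-SMC (SMC1, SMC2) or HUVEC. SMC1: pooled media, technical triplicates 400 ug; SMC2: process triplicates 300 ug; HUVEC: process triplicates 200 ug, bFGF2 10 ng/ml.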
As for “ACTG1_105 (LTEAPLNPKANR; listed as Homo sapiens)”, the logFC.mEQ.over.Luc was −0.31.

Substance “ACTN4_5 (HAANQSYQYGPSSAGNGAGGGGSMG; listed as Homo sapiens)” registered a logFC.mEQ.over.Luc of 0.00.

“ADAM9_74 (GKEHIIHLER; listed as Homo sapiens)” showed a logFC.mEQ.over.Luc of −0.18.

Regarding “ADAM10_86 (FKVETSNKVL; listed as Homo sapiens)”, the logFC.mEQ.over.Luc is listed as −0.29.

“ADNP2_375 (SQPVGPVNK; listed as Homo sapiens)” came in with a logFC.mEQ.over.Luc of 4.60.

Consider “AMER2_654 (LAGTTIRATACH; listed as Homo sapiens)”, for which the logFC.mEQ.over.Luc is recorded as 0.05.

The substance “APLP2_452 (LVETHLAR; listed as Homo sapiens)” had a logFC.mEQ.over.Luc of 0.11.

Take “APOA1_86 (EQLGPVTQEFW; listed as Homo sapiens)”: the logFC.mEQ.over.Luc is listed as −0.07.

For “BMPER_43 (LTGSVAKCENEG; listed as Homo sapiens)”, the logFC.mEQ.over.Luc was −0.06.

The substance “CALU_176 (FTAFLHPEEY; listed as Homo sapiens)” showed a logFC.mEQ.over.Luc of −0.01.

As to “CAP1_300 (FSAPKPQTSPSPKR; listed as Homo sapiens)”, the logFC.mEQ.over.Luc stood at 0.09.

Consider “CCL2_28 (INAPVTCCYNFTNR; listed as Homo sapiens)”, for which the logFC.mEQ.over.Luc is −0.11.

Substance “CEP192_728 (DKSTAGR; listed as Homo sapiens)” yielded a logFC.mEQ.over.Luc of −0.62.

“CTSB_109 (WAFGAVEAIS; listed as Homo sapiens)” gave a logFC.mEQ.over.Luc of −0.08.

Substance “DBN1_434 (APVEPATA; listed as Homo sapiens)” registered a logFC.mEQ.over.Luc of 0.03.

Regarding “DIS3L_75 (FPELKGIIFMQTACQAVQHQR; listed as Homo sapiens)”, the logFC.mEQ.over.Luc was −0.02.

Take “ECM1_38 (FQEVGYAAPPSPPLSR; listed as Homo sapiens)”: the logFC.mEQ.over.Luc is listed as −0.02.

“ECM1_44 (AAPPSPPLSR; listed as Homo sapiens)” had a logFC.mEQ.over.Luc of −0.28.

Substance “ECM1_108 (QEAVPLQK; listed as Homo sapiens)” gave a logFC.mEQ.over.Luc of −0.22.

Regarding “EEF1G_23 (QYSGAQVR; listed as Homo sapiens)”, the logFC.mEQ.over.Luc is given as −0.12.

The substance “EIF4B_426 (QTGTSTTSSR; listed as Homo sapiens)” displayed a logFC.mEQ.over.Luc of 0.49.

“EMSY_943 (QTVVQVLAVK; listed as Homo sapiens)”: the logFC.mEQ.over.Luc was 0.20.

Take “FBLN2_665 (FSQVASNTIPLPLPQPNTCK; listed as Homo sapiens)”: the logFC.mEQ.over.Luc is −0.15.

On to “FLNA_689 (VNKPAEFTV; listed as Homo sapiens)”, for which the logFC.mEQ.over.Luc is −1.45.

Substance “FLNC_2649 (FVGQKNSFTV; listed as Homo sapiens)” registered a logFC.mEQ.over.Luc of −0.06.

In the case of “FN1_35 ([code q]MVQPQSPVAVSQSKPGCY; not fully specified (residue 2); listed as Homo sapiens)”, the logFC.mEQ.over.Luc was −0.09.

In turn, “FN1_99 (DKYTGNTYR; listed as Homo sapiens)” displayed a logFC.mEQ.over.Luc of −0.08.

As for “FN1_607 (SSSGPVEVFIT; listed as Homo sapiens)”, the logFC.mEQ.over.Luc is reported as 0.45.

In turn, “FN1_1693 (LQPTVEYVVSVYAQNPSG; listed as Homo sapiens)” gave a logFC.mEQ.over.Luc of −0.07.

“FN1_1780 (LQGLRPGSEYTVSVVALH; listed as Homo sapiens)” registered a logFC.mEQ.over.Luc of −0.34.

In the case of “FN1_1805 (LIGTQSTAIPAPT; listed as Homo sapiens)”, the logFC.mEQ.over.Luc worked out at 0.71.

In turn, “FN1_2113 (FVTHPGY; listed as Homo sapiens)” displayed a logFC.mEQ.over.Luc of −0.19.

Substance “FOXG1_235 (LNKCFVKVPRHY; listed as Homo sapiens)” gave a logFC.mEQ.over.Luc of 0.07.

“FSTL_1290 (LQKHQETA; listed as Homo sapiens)” yielded a logFC.mEQ.over.Luc of −0.28.

Consider “HEG1_51 (GLELQLER; listed as Homo sapiens)”, for which the logFC.mEQ.over.Luc is listed as 0.25.

“HEG1_224 (FQTKSGTAS; listed as Homo sapiens)” had a logFC.mEQ.over.Luc of 0.29.

“KCND1_436 (RLAKSGTTNAFLQYKQNGGLE; listed as Homo sapiens)”: the logFC.mEQ.over.Luc is −0.14.

Consider “KRT28_2 (SLQFSNGSR; listed as Homo sapiens)”, for which the logFC.mEQ.over.Luc is listed as −0.34.

Turning to “LASP1_182 (SYGGYKEPAAPVSIQR; listed as Homo sapiens)”, the logFC.mEQ.over.Luc was −0.14.

Substance “LOXL1_157 (SVSASAFASTYR; listed as Homo sapiens)” gave a logFC.mEQ.over.Luc of −0.19.

The substance “LOX_60 (LGSQYQPQR; listed as Homo sapiens)” had a logFC.mEQ.over.Luc of −0.34.

Take “LOX_125 (FQAGYSTSR; listed as Homo sapiens)”: the logFC.mEQ.over.Luc is given as 0.11.

The experiment is the same for the next values; noted with them: log fold change, ADAMTS7 EQ over luciferase.
For “QSOX1_558 (VAAAPELAMGALELESR; listed as Homo sapiens)”, the logFC.mEQ.over.Luc is recorded as −0.19.

Consider “SDC4_106 (LEENEVIPKR; listed as Homo sapiens)”, for which the logFC.mEQ.over.Luc is on record as −0.35.

“SERPINH1_27 (AAAPGTAEKLSPKAATLAER; listed as Homo sapiens)” had a logFC.mEQ.over.Luc of −0.69.

In turn, “SMOC1_35 (LISDRDPQCNLHCSR; listed as Homo sapiens)” showed a logFC.mEQ.over.Luc of 0.14.

Regarding “SPOCK1_126 (HWVGPSNLVK; listed as Homo sapiens)”, the logFC.mEQ.over.Luc is listed as 0.36.

“SRGN_50 (LEEKGPMFELLPGESNKIPR; listed as Homo sapiens)” showed a logFC.mEQ.over.Luc of −0.07.

“SRGN_51 (EEKGPMFELLPGESNKIPR; listed as Homo sapiens)” registered a logFC.mEQ.over.Luc of −0.13.

Turning to “SRGN_60 (LPGESNKIPR; listed as Homo sapiens)”, the logFC.mEQ.over.Luc came to 0.32.

In turn, “SRGN_62 (GESNKIPR; listed as Homo sapiens)” displayed a logFC.mEQ.over.Luc of −0.45.

Take “STC1_37 (QNSAEVVR; listed as Homo sapiens)”: the logFC.mEQ.over.Luc is on record as −0.22.

Regarding “STC2_239 (HGEAGHHLPEPSSR; listed as Homo sapiens)”, the logFC.mEQ.over.Luc was −0.11.

As for “STC2_244 (HHLPEPSSR; listed as Homo sapiens)”, the logFC.mEQ.over.Luc is −0.26.

Take “TGFBI_24 (GPAKSPYQLVLQHSR; listed as Homo sapiens)”: the logFC.mEQ.over.Luc was 0.05.

Regarding “TGFBI_43 ([code q]HGPNVCAVQKVIGTNR; not fully specified; listed as Homo sapiens)”, the logFC.mEQ.over.Luc worked out at 0.10.

In turn, “TGFBI_50 (AVQKVIGTNR; listed as Homo sapiens)” came in with a logFC.mEQ.over.Luc of 0.33.

On to “TGFBI_208 (GIVTVNCAR; listed as Homo sapiens)”, for which the logFC.mEQ.over.Luc amounted to 0.30.

For “TGFBI_276 (TLLAPT[code n]EAFEKIPSETLNR; not fully specified; listed as Homo sapiens)”, the logFC.mEQ.over.Luc is on record as 0.09.

As to “TGFBI_497 (VLTPPMGTVMDVLKGDNR; not fully specified (residue 6); listed as Homo sapiens)”, the logFC.mEQ.over.Luc was 0.14.

With “TGFBI_524 (SAGLTETLNR; listed as Homo sapiens)”, the logFC.mEQ.over.Luc was determined as 0.18.

With “TGFBI_534 (EGVYTVFAPTNEAFR; listed as Homo sapiens)”, the logFC.mEQ.over.Luc came out at 0.09.
